Laboratory results published in the supplement of paper PMC10065799, “High-throughput profiling of sequence recognition by tyrosine kinases and SH2 domains using bacterial peptide display” (eLife, 2023).

Key:
Jak2 = Jak2 (UniProt O60674); test: phosphorylation enrichment, bacterial display (enrichment ratio); higher = better substrate or ligand; peptides without Tyr show the background
Hck = Hck (UniProt P08631); test: as above
c-Src = test: as above
MERTK = MERTK (UniProt Q12866); test: as above
Fer (mouse) = test: as above
FGFR3 = FGFR3 (UniProt P22607); test: as above
AncSZ = test: as above
EPHB1 = EPHB1 (UniProt P54762); test: as above
c-Abl (mouse) = test: as above
Fyn = Fyn (UniProt P06241); test: as above
EPHB2 = EPHB2 (UniProt P29323); test: as above
Fes = Fes (UniProt P07332); test: as above
FGFR1 = FGFR1 (UniProt P11362); test: as above
Grb2 SH2 = Grb2 SH2 (UniProt P62993); test: SH2 binding enrichment of the phosphorylated peptide, bacterial display (enrichment ratio); higher = better substrate or ligand; peptides without Tyr show the background
c-Src SH2 = test: as above
SHP2-C SH2 = test: as above
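Wherever SH2 binding enrichment of the phosphorylated peptide, bacterial display is given: peptide library displayed on the E. coli surface as eCPX fusions, selected cells deep-sequenced, score is each peptide's frequency after selection divided by its frequency in the input.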
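Wherever phosphorylation enrichment, bacterial display is given: 11-residue human phosphosite peptides and single-mutation variants displayed on the E. coli surface, counted by deep sequencing, each peptide's frequency after selection divided by its frequency in the unselected input library; frequency after pTyr selection over input frequency; kinase dosed for 20-30% of maximal phosphorylation in three min.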

Chain of MERTK (Q12866 whole entry, looked up): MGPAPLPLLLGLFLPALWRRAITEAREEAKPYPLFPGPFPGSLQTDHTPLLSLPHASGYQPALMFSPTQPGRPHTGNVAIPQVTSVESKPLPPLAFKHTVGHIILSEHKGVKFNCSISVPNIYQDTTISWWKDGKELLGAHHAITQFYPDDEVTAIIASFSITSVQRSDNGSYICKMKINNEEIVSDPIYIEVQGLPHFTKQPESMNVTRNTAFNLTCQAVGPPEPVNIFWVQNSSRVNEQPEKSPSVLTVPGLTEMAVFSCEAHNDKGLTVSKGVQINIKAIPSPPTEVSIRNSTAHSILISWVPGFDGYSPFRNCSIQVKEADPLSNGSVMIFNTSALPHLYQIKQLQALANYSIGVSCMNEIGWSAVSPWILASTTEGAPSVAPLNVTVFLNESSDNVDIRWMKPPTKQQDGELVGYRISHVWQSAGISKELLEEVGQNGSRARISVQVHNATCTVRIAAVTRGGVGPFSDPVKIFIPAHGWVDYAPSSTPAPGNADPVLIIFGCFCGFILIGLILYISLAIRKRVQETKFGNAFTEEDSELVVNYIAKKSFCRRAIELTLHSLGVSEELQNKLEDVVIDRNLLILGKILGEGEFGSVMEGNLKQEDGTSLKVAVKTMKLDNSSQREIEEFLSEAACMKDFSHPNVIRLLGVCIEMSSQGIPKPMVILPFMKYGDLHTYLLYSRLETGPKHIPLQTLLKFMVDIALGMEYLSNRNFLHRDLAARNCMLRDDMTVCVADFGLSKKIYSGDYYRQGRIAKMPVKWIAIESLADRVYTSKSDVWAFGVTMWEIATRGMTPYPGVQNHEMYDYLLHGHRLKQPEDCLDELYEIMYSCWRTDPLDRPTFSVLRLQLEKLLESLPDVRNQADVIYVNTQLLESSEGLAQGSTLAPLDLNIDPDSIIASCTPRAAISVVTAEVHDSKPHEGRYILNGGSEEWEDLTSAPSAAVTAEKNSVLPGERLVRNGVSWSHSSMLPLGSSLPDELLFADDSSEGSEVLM
Chain of EPHB2 (P29323 whole entry, looked up): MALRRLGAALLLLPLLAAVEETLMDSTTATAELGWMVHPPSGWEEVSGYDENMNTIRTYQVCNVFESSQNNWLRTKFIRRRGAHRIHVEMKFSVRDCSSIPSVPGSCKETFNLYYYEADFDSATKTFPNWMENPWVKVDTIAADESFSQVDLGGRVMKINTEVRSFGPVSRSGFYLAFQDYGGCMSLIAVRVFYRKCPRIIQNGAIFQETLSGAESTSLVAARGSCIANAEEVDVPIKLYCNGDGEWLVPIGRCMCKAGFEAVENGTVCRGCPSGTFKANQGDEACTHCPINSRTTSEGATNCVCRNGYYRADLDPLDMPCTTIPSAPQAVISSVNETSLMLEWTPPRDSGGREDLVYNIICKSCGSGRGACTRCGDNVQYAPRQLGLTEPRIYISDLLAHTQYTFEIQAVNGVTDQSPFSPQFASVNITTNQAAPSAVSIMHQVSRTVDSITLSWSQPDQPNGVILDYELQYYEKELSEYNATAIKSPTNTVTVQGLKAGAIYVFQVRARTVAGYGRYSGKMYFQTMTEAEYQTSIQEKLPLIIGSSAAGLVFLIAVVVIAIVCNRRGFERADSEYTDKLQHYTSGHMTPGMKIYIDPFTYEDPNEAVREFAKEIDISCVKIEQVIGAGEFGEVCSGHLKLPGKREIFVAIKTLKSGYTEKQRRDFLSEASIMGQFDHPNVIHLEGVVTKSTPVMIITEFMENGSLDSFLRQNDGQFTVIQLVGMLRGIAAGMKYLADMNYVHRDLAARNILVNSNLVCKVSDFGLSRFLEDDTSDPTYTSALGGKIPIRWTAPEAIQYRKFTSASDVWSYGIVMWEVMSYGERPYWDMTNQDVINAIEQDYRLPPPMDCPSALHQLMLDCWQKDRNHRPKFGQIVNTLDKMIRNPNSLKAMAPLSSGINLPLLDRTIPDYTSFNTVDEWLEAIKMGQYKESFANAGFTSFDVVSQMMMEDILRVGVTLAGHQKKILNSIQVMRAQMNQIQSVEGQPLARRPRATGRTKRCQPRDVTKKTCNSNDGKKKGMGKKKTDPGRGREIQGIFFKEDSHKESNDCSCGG
Chain of Jak2 (O60674 whole entry, looked up): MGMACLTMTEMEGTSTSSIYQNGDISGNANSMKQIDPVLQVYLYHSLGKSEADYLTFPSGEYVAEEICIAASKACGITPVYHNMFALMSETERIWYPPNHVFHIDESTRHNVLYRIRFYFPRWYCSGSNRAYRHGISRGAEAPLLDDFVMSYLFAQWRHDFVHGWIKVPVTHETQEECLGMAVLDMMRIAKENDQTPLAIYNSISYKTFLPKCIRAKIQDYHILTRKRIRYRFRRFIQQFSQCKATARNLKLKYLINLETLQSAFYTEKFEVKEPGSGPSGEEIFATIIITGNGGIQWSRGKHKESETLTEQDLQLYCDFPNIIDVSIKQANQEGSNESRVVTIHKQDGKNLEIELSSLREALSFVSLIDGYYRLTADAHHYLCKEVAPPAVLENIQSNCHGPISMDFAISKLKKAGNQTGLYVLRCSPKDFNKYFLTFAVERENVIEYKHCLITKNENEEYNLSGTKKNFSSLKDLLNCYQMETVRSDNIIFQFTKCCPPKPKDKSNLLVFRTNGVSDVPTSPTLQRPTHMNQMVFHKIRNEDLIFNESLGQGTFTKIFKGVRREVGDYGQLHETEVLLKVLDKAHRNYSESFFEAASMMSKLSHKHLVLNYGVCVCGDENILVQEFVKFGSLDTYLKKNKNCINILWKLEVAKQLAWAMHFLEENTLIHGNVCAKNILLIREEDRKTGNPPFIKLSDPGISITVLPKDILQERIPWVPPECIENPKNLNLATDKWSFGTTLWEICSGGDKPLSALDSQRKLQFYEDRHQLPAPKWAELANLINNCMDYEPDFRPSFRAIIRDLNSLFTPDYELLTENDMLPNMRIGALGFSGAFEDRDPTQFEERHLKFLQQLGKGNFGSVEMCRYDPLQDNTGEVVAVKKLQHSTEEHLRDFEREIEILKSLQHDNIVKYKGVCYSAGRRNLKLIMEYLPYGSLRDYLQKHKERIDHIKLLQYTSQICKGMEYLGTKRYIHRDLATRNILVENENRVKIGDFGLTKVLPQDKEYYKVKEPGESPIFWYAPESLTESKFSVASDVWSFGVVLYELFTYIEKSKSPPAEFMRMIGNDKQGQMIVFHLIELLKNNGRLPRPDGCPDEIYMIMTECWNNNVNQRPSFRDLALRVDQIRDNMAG
Chain of FGFR3 (P22607 whole entry, looked up): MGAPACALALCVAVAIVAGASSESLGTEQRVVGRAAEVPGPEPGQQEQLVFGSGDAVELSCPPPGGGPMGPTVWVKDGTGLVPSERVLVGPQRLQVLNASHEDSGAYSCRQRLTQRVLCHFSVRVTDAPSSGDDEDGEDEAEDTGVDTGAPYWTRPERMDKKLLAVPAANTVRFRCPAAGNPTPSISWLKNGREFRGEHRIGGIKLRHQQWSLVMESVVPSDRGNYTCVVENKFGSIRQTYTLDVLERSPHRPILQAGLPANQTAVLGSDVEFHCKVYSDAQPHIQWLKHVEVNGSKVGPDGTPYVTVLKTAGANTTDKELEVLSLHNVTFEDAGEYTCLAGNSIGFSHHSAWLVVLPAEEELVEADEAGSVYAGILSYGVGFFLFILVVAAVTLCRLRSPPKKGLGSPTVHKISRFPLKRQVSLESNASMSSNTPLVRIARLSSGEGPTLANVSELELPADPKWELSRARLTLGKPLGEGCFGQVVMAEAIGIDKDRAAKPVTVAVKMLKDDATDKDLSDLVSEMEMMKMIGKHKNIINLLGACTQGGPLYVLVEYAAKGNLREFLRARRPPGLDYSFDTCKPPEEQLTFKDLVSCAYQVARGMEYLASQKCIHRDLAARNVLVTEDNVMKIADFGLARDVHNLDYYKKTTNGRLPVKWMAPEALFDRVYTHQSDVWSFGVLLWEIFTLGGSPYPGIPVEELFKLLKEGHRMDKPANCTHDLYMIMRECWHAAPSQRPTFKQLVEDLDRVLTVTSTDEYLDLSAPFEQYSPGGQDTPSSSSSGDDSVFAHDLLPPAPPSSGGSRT
Chain of EPHB1 (P54762 whole entry, looked up): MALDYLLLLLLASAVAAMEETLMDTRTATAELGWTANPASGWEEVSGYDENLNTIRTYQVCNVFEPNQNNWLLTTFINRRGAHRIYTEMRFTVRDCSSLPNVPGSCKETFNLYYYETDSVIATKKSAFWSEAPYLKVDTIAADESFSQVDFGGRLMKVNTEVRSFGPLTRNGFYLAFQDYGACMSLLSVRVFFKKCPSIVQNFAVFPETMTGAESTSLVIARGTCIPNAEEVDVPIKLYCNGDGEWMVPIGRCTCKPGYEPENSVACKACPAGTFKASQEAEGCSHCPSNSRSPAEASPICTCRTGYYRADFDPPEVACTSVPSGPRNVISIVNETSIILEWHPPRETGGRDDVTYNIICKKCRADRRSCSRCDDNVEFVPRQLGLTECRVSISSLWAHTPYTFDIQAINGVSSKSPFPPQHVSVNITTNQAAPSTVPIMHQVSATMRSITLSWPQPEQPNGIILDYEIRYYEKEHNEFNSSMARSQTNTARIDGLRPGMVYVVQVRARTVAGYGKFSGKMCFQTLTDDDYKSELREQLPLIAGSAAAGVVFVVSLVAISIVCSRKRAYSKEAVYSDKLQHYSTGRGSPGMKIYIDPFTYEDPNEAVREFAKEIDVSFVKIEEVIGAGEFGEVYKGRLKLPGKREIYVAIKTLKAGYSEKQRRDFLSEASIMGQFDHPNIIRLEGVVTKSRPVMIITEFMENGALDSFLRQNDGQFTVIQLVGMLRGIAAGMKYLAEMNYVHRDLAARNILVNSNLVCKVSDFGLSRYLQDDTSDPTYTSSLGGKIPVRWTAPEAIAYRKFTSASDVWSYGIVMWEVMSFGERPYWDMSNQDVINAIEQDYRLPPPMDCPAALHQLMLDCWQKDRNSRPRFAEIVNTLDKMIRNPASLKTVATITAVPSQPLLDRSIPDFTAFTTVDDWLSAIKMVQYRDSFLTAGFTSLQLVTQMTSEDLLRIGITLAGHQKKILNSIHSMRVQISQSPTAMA

| Sequence | phosphorylation enrichment (Jak2) | phosphorylation enrichment (Hck) | phosphorylation enrichment (c-Src) | phosphorylation enrichment (MERTK) | phosphorylation enrichment (Fer (mouse)) | phosphorylation enrichment (FGFR3) | phosphorylation enrichment (AncSZ) | phosphorylation enrichment (EPHB1) | phosphorylation enrichment (c-Abl (mouse)) | phosphorylation enrichment (Fyn) | phosphorylation enrichment (EPHB2) | phosphorylation enrichment (Fes) | phosphorylation enrichment (FGFR1) | SH2 binding enrichment (Grb2 SH2) | SH2 binding enrichment (c-Src SH2) | SH2 binding enrichment (SHP2-C SH2) |
| --- | --- | --- | --- | --- | --- | --- | --- | --- | --- | --- | --- | --- | --- | --- | --- | --- |
| FGYPGYQSKHY [TIMP3_Y177] | 0.607 | 0.414 | 0.534 | 0.435 | 0.443 | 0.546 | 0.592 | 0.512 | 0.496 | 0.516 | 0.465 | 0.8 | 0.349 | 0.895 | 0.511 | 0.751 |
| FHNSEYGELSE [FLT4_Y1337_Y1333H] | 1.05 | 0.724 | 0.849 | 0.352 | 0.473 | 0.738 | 1.18 | 0.613 | 0.806 | 1.1 | 0.504 | 1.23 | 0.569 | 0.893 | 0.452 | 0.992 |
| FHRQLYHKCTH [F12_Y58_YF] | 0.623 | 0.425 | 0.375 | 0.385 | 0.398 | 0.442 | 0.601 | 0.855 | 0.502 | 0.371 | 0.495 | 0.76 | 0.387 | 1.03 | 0.916 | 0.933 |
| FIGVTYKNEED [PDGFRA_Y993_YF] | 0.92 | 0.451 | 0.491 | 0.336 | 0.49 | 0.629 | 1.02 | 0.565 | 0.649 | 0.432 | 0.484 | 1.11 | 0.584 | 1.31 | 0.555 | 0.571 |
| FISLIYTNFEA [GSTP1_Y109_YF] | 1.3 | 2.56 | 4.67 | 3.6 | 2 | 1.12 | 1.56 | 1.11 | 2.21 | 4.29 | 0.793 | 1.55 | 0.683 | 1.1 | 0.524 | 0.872 |
| FKEIVYAVSSD [DCX_Y70_G67E] | 0.921 | 2.25 | 3.74 | 1.93 | 0.587 | 0.809 | 1.32 | 0.455 | 13.7 | 3.23 | 0.644 | 1.4 | 0.723 | 0.913 | 0.742 | 0.656 |
| FLAVEYHKPHI [IDS_Y225_G224E] | 1.05 | 0.38 | 0.387 | 0.302 | 0.354 | 0.515 | 0.779 | 0.417 | 1.6 | 0.337 | 0.459 | 0.814 | 0.393 | 1.32 | 0.925 | 0.653 |
| FLLTVYSIFSK [SGCE_Y38] | 1.1 | 2.3 | 3.17 | 1.17 | 0.594 | 0.647 | 1.15 | 0.643 | 0.899 | 2.59 | 0.589 | 1.05 | 0.496 | 2.05 | 1.38 | 1.93 |
| FLRKEYGGLNV [CBR3_Y81] | 0.615 | 0.404 | 0.334 | 0.385 | 0.375 | 0.437 | 0.584 | 0.4 | 0.412 | 0.45 | 0.519 | 0.618 | 0.393 | 0.667 | 0.435 | 0.432 |
| FPILNYKDIRK [CFAP221_Y798_M795I] | 0.745 | 0.391 | 0.49 | 0.453 | 0.449 | 0.464 | 0.546 | 0.478 | 0.486 | 0.368 | 0.487 | 0.666 | 0.431 | 0.76 | 0.447 | 0.696 |
| FPLAEYTEVKT [ALDH1A3_Y497_A493P_YF] | 1.01 | 0.54 | 0.528 | 0.4 | 0.516 | 0.82 | 1.34 | 0.685 | 0.709 | 0.502 | 0.575 | 0.968 | 0.671 | 0.884 | 1.87 | 0.841 |
| FPRAWYRRSIA [KIAA1109_Y4272] | 0.689 | 0.413 | 0.477 | 0.473 | 0.473 | 0.381 | 0.693 | 0.394 | 0.552 | 0.405 | 0.468 | 0.55 | 0.394 | 0.801 | 0.462 | 0.339 |
| FPSLPYSPVSS [CAMKK2_Y128_C123Y_YF] | 0.526 | 0.59 | 0.457 | 0.489 | 2.1 | 0.592 | 0.789 | 0.452 | 0.507 | 0.479 | 0.445 | 0.707 | 0.539 | 0.857 | 0.672 | 0.863 |
| FQKDVYNIPPS [NEDD9_Y177_D178N_YF] | 1.75 | 1.31 | 2.21 | 0.883 | 0.371 | 0.468 | 0.613 | 0.437 | 0.525 | 2.54 | 0.411 | 0.572 | 0.47 | 1 | 0.479 | 0.913 |
| FQKNSYSEELR [LMNA_Y211_I210S] | 0.63 | 0.319 | 0.452 | 0.425 | 0.365 | 0.499 | 0.626 | 0.363 | 0.544 | 0.456 | 0.342 | 0.686 | 0.401 | 0.847 | 0.413 | 0.643 |
